Assay results: patent US20230086871A1 (UNIVERSITY OF FREIBURG, published 2023)

Biological target: the molecule itself
Assay: negative-stain transmission electron microscopy and 2D classification of purified His-SYMREM1 (self-assembly)

B1: His-SYMREM1 (purified, recombinant Medicago truncatula SYMREM1 protein) (other)
chain: MEESKNKQLELVDTLTPLPQSESEPREFSYFLEEKEPGNEGTSSSVVKQERVVSDHATSSVDQTTAAGTDTKDSVDRDAVLARVESQKRLALIKAWEENEKTKVENRAYKMQSAVDLWEDDKKASIEAKFKGIEVKLDRKKSEYVEVMQNKIGEIHKSAEEKKAMIEAQKGEEILKVEETAAKFRTRGYQPRRLLGCFSGLRFFS
notes: also called Symbiotic Remorin 1; recombinant SYMREM1; not shown: N-terminal His tag and linker from the pDEST17 Gateway vector
B1: binds.
